Columns and labels:
GST-Epx2 = GST-Epx2 (E. faecium, UniProt P08515 1-218 = GST); assay: GST pull-down from lysates of transfected HEK293 cells, anti-FLAG immunoblot
GST-Epx3 = GST-Epx3 (E. faecalis, UniProt P08515 1-218 = GST); assay: as above
GST-Epx3, sequence (P08515 1-218, tags or fused parts left off): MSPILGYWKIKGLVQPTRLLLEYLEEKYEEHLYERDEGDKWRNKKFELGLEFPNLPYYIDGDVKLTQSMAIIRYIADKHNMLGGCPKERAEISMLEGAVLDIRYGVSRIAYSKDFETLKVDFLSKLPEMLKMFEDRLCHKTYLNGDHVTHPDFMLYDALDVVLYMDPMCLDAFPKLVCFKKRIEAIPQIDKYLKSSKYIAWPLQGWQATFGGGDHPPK

GST-Epx2, sequence (P08515 1-218, tags or fused parts left off): as above

Binder	binding result (GST-Epx2)	binding result (GST-Epx3)
HLA-C (full length, FLAG-tagged, expressed in HEK293 cells) (receptor, also called HLA-C alone; not shown: triple-FLAG tag) MHC heavy: CSHSMRYFDTAVSRPGRGEPRFISVGYVDDTQFVRFDSDAASPRGEPRAPWVEQEGPEYWDRETQKYKRQAQADRVSLRNLRGYYNQSEDGSHTLQRMSGCDLGPDGRLLRGYDQSAYDGKDYIALNEDLRSWTAADTAAQITQRKLEAARAAEQLRAYLEGTCVEWLRRYLENGKETLQRAEPPKTHVTHHPLSDHEATLRCWALGFYPAEITLTWQRDGEDQTQDTELVETRPAGDGTFQKWAAVVVPSGQEQRYTCHMQHEGLQEPLTLSWEPSSQPTIPIMGIVAGLAVLVVLAVLGAVVTAMMCRRKSSGGKGGSCSQAACSNSAQGSDESLITCKAEFGSGSGS	no binding	no binding
HLA-A (full length, 3× FLAG tagged, expressed in HEK293 cells) (receptor, also called HLA-A alone; not shown: triple-FLAG tag) MHC heavy: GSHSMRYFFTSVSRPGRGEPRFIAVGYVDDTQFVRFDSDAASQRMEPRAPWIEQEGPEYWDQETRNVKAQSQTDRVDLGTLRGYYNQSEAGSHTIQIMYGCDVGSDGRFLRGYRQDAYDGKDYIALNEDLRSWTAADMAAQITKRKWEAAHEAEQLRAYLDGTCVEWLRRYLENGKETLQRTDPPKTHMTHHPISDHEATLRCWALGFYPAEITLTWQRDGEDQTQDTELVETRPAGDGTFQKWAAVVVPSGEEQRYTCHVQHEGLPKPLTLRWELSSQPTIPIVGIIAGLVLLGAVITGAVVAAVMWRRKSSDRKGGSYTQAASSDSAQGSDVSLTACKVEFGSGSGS	no binding	no binding
HLA-B (full length, FLAG-tagged, expressed in HEK293 cells) (receptor, also called HLA-B alone; not shown: triple-FLAG tag) MHC heavy: GSHSMRYFYTSVSRPGRGEPRFISVGYVDDTQFVRFDSDAASPREEPRAPWIEQEGPEYWDRNTQIYKAQAQTDRESLRNLRGYYNQSEAGSHTLQSMYGCDVGPDGRLLRGHDQYAYDGKDYIALNEDLRSWTAADTAAQITQRKWEAAREAEQRRAYLEGECVEWLRRYLENGKDKLERADPPKTHVTHHPISDHEATLRCWALGFYPAEITLTWQRDGEDQTQDTELVETRPAGDRTFQKWAAVVVPSGEEQRYTCHVQHEGLPKPLTLRWEPSSQSTVPIVGIVAGLAVLAVVVIGAVVAAVMCRRKSSGGKGGSYSQAACSDSAQGSDVSLTAEFGSGSGS	no binding	no binding

Source: patent US20250215058A1 (CHILDREN S MEDICAL CENTER, published 2025)
